Measurements from patent US20210130452A1 (Merck KGaA, published 2021).

T1: rat IL-17A (rat, UniProt Q61453 18-150, limits assumed)
T1 construct: made in E. coli, bought
T1 sequence (looked up): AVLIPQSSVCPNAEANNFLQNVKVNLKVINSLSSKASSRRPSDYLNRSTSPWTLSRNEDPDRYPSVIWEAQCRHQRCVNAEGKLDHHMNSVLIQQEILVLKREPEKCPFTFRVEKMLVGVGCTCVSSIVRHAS

T2: mouse IL-17A (mouse, UniProt Q62386 26-158)
T2 sequence (looked up): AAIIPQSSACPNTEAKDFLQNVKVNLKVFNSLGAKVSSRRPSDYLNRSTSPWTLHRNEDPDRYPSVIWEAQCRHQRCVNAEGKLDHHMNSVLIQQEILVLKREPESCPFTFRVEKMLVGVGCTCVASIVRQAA

T3: human IL-17D (human, UniProt Q8TAD2 18-202, limits assumed)
T3 construct: expressed in E. coli; also called hIL-17D
T3 sequence (looked up): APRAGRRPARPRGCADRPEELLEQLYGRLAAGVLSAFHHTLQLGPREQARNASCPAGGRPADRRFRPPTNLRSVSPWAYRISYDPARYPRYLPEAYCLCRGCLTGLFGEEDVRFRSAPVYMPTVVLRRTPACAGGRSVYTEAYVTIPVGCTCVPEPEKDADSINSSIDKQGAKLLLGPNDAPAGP

T4: human IL-17E (human, UniProt Q9H293 33-177)
T4 construct: expressed in E. coli; also called hIL-17E
T4 sequence (looked up): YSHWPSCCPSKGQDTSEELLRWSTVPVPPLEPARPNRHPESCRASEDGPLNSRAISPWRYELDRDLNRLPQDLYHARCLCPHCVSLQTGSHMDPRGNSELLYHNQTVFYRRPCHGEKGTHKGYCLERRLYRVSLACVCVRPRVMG

T5: human IL-17B (human, UniProt Q9UHF5 21-180)
T5 construct: expressed in E. coli; also called hIL-17B
T5 sequence (looked up): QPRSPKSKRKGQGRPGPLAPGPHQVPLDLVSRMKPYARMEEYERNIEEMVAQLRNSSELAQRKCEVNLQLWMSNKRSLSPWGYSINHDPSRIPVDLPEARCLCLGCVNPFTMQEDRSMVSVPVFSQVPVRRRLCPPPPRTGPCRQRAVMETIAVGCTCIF

T6: human IL-17C (human, UniProt Q9P0M4 19-197)
T6 construct: expressed in E. coli; also called hIL-17C
T6 sequence (looked up): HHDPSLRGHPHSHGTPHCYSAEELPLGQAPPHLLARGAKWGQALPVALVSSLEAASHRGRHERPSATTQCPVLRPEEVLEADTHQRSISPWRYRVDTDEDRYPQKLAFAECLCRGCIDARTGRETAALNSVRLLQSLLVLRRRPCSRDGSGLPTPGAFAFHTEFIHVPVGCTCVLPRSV

T7: rat IL-17F (rat, UniProt Q5BJ95 29-161)
T7 sequence (looked up): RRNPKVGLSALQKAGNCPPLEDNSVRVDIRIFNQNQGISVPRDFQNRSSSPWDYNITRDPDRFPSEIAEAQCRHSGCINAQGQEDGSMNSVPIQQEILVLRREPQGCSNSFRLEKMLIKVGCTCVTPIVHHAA

T8: mouse IL-17F (mouse, UniProt Q7TNI7 29-161)
T8 sequence (looked up): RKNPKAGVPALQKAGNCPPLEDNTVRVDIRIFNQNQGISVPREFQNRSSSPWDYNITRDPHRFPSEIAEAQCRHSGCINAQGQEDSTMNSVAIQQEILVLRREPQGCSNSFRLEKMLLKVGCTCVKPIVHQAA

B1: 04G01 (VHH)
VHH: EVQLVESGGGLVQAGGSQRLSCTASGTIVNIHVMGWYRQAPGKQRELVALIFSGGSADYADSVKGRFTISRDNAKNTVYLEMNSLKAEDTAVYYCAAEIGYYSGGTYYSSEAHWGQGTQVTVSS
notes: Class 2; also called IL17MS04G01; 04G1
B2: 03C07 (VHH)
VHH: EVQLVESGGGLVQAGGSLRLSCAASGFTFDDYAIGWFRQAPGKEREAVSCFSSSDGSIYYADSVKGRFTISSDNAKNTVYLQMNSLKPEDTAVYYCAGGGGSYYYTQLNYCYDMDYWGKGTQVTVSS
notes: Class 2
B3: 13B03 (VHH)
VHH: EVQLVESGGGSVQAGDSLRLSCAASGRANSINWFGWFRQTPGKEREFVAGIRWSDAYTEYANSVKGRFTISRDNAKNTVDLQMDSLKPEDTAVYYCVLDLSTVRYWGQGTQVTVSS
notes: Class 4; also called IL17MS13B03
B4: 13B05 (VHH)
VHH: EVQLVESGGRLVQAGGSLRLSCAASGRTFTSYPMGWFRQAPGKEREFVAAISMSGDDTAYTDFVRGRFTISRDDARNTVYLHMTSLKPEDTAVYYCAARTSYDGTYDYIDDYSYWGQGTQVTVSS
notes: Class 4
B5: 17C01 (VHH)
VHH: EVQLVESGGRLVQAGGSLRLPCAASGRTFTSYPMGWFRQAPGKEREFVAAISMSGDDAAYADFVRGRFTISRDDARNTVYLHMTSLKPEDTAVYYCAARTSYDGTYDYIDDYSYWGQGTQVTVSS
notes: Class 4
B6: 04B09 (VHH)
VHH: EVQLVESGGGLVQPGGSLRLSCAASGFTLGYYAIGWFRQAPGKEREGVSCDSSSDGDTYYANSVKGRFTISTDNGKNTVYLQMNSLKPEDTAVYYCATCTDWNYDYWGQGTQVTVSS
notes: Class 2; also called 04B9
B7: 02A08 (VHH)
VHH: EVQLVESGGGVVQPGGSLRLSCADSERSFSFNAMGWFRQAPGKEREFVAAISATGDDTYYADSVKGRFAISRDTARNTVYLQMNSLKPEDTAVYYCGARVNFDGTVSYTNDYAYWGQGTQVTVSS
notes: Class 2
B8: 11A06 (VHH)
VHH: EVQLVESGGGLVQPGESLRLSCKASGFSLDYYALGWFRQAPGKEREGISCITSSDASAYYTDSVKGRFTISRDNSKNTVYLQMNSLKTEDTAIYYCAAALLTCSSYYDAYTYWGQGTQVTVSS
notes: Class 2
B9: 09G10 (VHH)
VHH: EVQLVESGGGLVQAGGSLRLSCAASDSVFTAKAVGWYRQPPGLQREWVAIITSGGKTNYADSSVKGRFTVSVDKVKNTVTLQMNSLKPEDTAVYYCYAQWMGRDYWGQGTQVTVSS
notes: Class 2
B10: 01A01 (VHH)
VHH: EVQLVESGGGLVQAGGSLRLSCAASGFTFDDYDIGWFRQAPGKEREGVSCFTSSDGRTFYADSVKGRFTVSADNAKNTVYLQMNSLEPEDTAVYFCAAVNTFDESAYAAFACYDVVRWGQGTQVTVSS
notes: Class 4
B11: 11C08 (VHH)
VHH: EVQLVESGGGLVQAGGSLRLSCAASGVIFRLNAMGWYRAAPGKQRELVAIIVNGGSTNYADSVKGRFTISRDSAKNAVYLQMNSLKPEDTAVYYCYYNIPGDVYWGQGTQVTVSS
notes: Class 4
B12: 13E02 (VHH)
VHH: EVQLVESGGGLVQAGGSLRLSCAASGRTYDAMGWLRQAPGKEREFVAAISGSGDDTYYADSVKGRFTISKDNAGITMYLQMNSLKPEDTAVYYCATRRGLYYVWDSNDYENWGQGTQVTVSS
notes: Class 4; also called IL17MS13E02

What was measured:
rat IL-17A = target: T1, rat IL-17A; test: binding ELISA
Method: (§1) Binding of a selected panel of anti-IL-17 Nanobodies to IL-17 of other species was assessed using a binding ELISA. […] HRP (horseradish peroxidase) conjugated anti-myc (Serotec, MCA 2200P) was used for detection using esTMB as substrate.

mouse IL-17A = target: T2, mouse IL-17A; test: binding ELISA
Method: as §1

human IL-17D = target: T3, human IL-17D; test: SPR, cytokine on chip
From the text: (§2) Human IL-17B, IL-17C, IL-17D or IL-17E were all expressed in E. coli, and covalently bound to a CM sensor chip surface via amine coupling using EDC/NHS for activation and HCl for deactivation.
(§3) Next, binding buffer was sent over the chip at the same flow rate to allow spontaneous dissociation of bound Nanobody or antibody.

human IL-17E = target: T4, human IL-17E; test: SPR, cytokine on chip
From the text: as §2, §3

human IL-17B = target: T5, human IL-17B; test: SPR, cytokine on chip
From the text: as §2, §3

human IL-17C = target: T6, human IL-17C; test: SPR, cytokine on chip
From the text: as §2, §3

rat IL-17F = target: T7, rat IL-17F; test: binding ELISA
Method: as §1

mouse IL-17F = target: T8, mouse IL-17F; test: binding ELISA
Method: as §1

Binder	binding result (rat IL-17A)	binding result (mouse IL-17A)	binding result (human IL-17D)	binding result (human IL-17E)	binding result (human IL-17B)	binding result (human IL-17C)	binding result (rat IL-17F)	binding result (mouse IL-17F)
B1	no binding (tested: 250 nM)	no binding (tested: 250 nM)	no binding	no binding	no binding	no binding	–	–
B2	no binding (tested: 250 nM)	no binding (tested: 250 nM)	no binding	no binding	no binding	no binding	–	–
B3	no binding (tested: 250 nM)	no binding (tested: 250 nM)	no binding	no binding	no binding	no binding	no binding (tested: 250 nM)	no binding (tested: 250 nM)
B4	no binding (tested: 250 nM)	no binding (tested: 250 nM)	no binding	no binding	no binding	no binding	no binding (tested: 250 nM)	no binding (tested: 250 nM)
B5	no binding (tested: 250 nM)	no binding (tested: 250 nM)	no binding	no binding	no binding	no binding	no binding (tested: 250 nM)	no binding (tested: 250 nM)
B6	no binding (tested: 250 nM)	no binding (tested: 250 nM)	no binding	no binding	no binding	no binding	–	–
B7	no binding (tested: 250 nM)	no binding (tested: 250 nM)	no binding	no binding	no binding	no binding	–	–
B8	no binding (tested: 250 nM)	no binding (tested: 250 nM)	no binding	no binding	no binding	no binding	–	–
B9	no binding (tested: 250 nM)	no binding (tested: 250 nM)	no binding	no binding	no binding	no binding	–	–
B10	no binding (tested: 250 nM)	no binding (tested: 250 nM)	no binding	no binding	no binding	no binding	no binding (tested: 250 nM)	no binding (tested: 250 nM)
B11	no binding (tested: 250 nM)	no binding (tested: 250 nM)	no binding	no binding	no binding	no binding	no binding (tested: 250 nM)	no binding (tested: 250 nM)
B12	no binding (tested: 250 nM)	no binding (tested: 250 nM)	no binding	no binding	no binding	no binding	no binding (tested: 250 nM)	no binding (tested: 250 nM)
